Measurements published in the domain aggregation screens of Martell et al. (2025).

Experiment: soluble fraction after stress (log2 fold change); higher = more stays soluble; pooled small domains, quantitative proteomics
Conditions: stress: pH 4
Procedure, shortened: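 High-throughput quantitative proteomics was run on pooled custom libraries of small protein domains following pH 4 stress. Fold changes are on a log2 scale; higher values mean more of a domain remained soluble. The fold change in soluble amount is taken as a measure of aggregation propensity.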

Row | Sequence | soluble fraction (log2)
1 | HMVPEEEATKISVQNVGASDYNFTVKGVQANDPTLTLVRGKTYEFDVTSLGHPFWIKTQKVTGSSSQY | -0.139
2 | HMKMSLKENLLELLQKSSGEFLSGERAAETLGVSRTAVWKAVTSLKNEGYNIESVTNRGYRFS | 0.395
3 | HMSLSASELDQLRMMTKVSHMYHTRGMVQIDIARSLGLSQARVSRLLSAAEDANIVRTVVVA | -0.177
4 | HMTKLSPKEKSILHIIGDNAGIKSGQIAKRLDIPSPTVKRILSDLVSQNLIEKFGTGPGTNYSI | 0.22
5 | HMSSQGQNTKTGTVTASALYVRSGAGTNYSQIGYLLKNTKVEIVGQTGSWYKIKFGSGTGYVSSKYIK | 0.0256
6 | HMVLALRGIVQGGAEPLVILSDGRTSQSLAVGERFLAYEVVEIGRTGVRLRGPEGEIWLAMASF | -1.37
7 | HMTLLVPASKEAILGGLAKIDALKVILKPEKDYSKTHAMTIGTKDEVIAKLDSFLSGMDSEKNQVLIQEYM | -0.135
8 | HMSSLTQREYEIAELVADGLSNKAIAAELSISHTTAARHVANIMNKLGFNSRSQIAAWVADRAQG | -0.46
9 | HMHDYTTIIGVIELRLNKISYDNVQKRYRIGRSGISLIMERYRDSGLSLDDLKQMPAEKVVNLIYPKD | -0.108
10 | HMPALATKDSVLDGRAEVVSYVRDTSVFYLRVRVPQKQGYRSRRIDGVSTLPEAITKALDTYMDLGT | -1.02
11 | HMARYSMLEEQLLQLINKHGTMSTPKLVEATGAPRSTVTYQLRKLLESGTIERTQPARSPKQSYRIKS | 0.0957
12 | HMIFELDSDRASAGNTIGKLVSKWNNTEVASVQFVSGDDTSNKDNASIYLNTRSGGSGNLVRLRITK | 0.108
13 | HMPTTTFENLPDAKKKTIIAALLKEFSQSPLSKAQVAPIVKESQIARGAFYKYFVDLTDAYTYLYRQ | -0.217
14 | HMKIVFGHVKWFDIDKGFGFLVLEDEGGDVLLHANVLKNFGRTSVSEDTKIEFEFLETDKGRQVSTIYNIL | -2.19
15 | HMTPDVAEFRERLRQILPGEQIEVRTANDGIVLSGTVSSIARLDAALQLAERYAPSRVSNLMSVG | 0.399
16 | HMSSIGERISDVRKARGYTQDQLAERIHVSRQTISHWENERALPDFESIKQLSQVLGYDFSS | 0.0836
17 | HMITMADKIDTALSEMAANNEKINVSQVAKRLGISNSAIYKFNPEKIPDIQTAQKRQKHKAEAIAVGTEN | 0.0504
18 | HMEGRTVMATTAVNVRSGPGTSYKILGVLYPGHTAQQIGNTRYGWAQVTWKGHTAYIAARYLRDS | 0.301
19 | HMDRNIVYSDFIRSVNQGQVSEVLVQGDNIRGRYLNGKVFQTFAPKDPSLISTLRNKGVRISAEPA | -0.022
20 | HMGGEPVSARVPDTLHGARLDATAAALFPDFSRSRLAEWIKAGRLRRNDQPAKPRDKVAVDDHLLLIPEY | -0.431
21 | HMANHIAAIHVLKSKLQMSDSDYRVLITGLTQKASTKDMSDIERQRVRDHMQGLAERMGVVK | 0.0887
22 | HMAVELPLETTLDIVRKYARNQEVDRRAERVEAVSAEALQTLAPRGTKLASEIVEQAKTQVLEELA | -0.0679
23 | HMGAVQFAEQKIHIGSRWIGKKISEFSAESDAFVILIKRGSEVVIPRGPTDIVENDVLVIHVPD | -1.8
24 | HMEQINVTIQTEKGRIDKVLSEHLPNHSRSQIQQWLKEKHVTVNGETVRANYKVTAGDEIVVTIPEPEV | -0.18
25 | HMEKSLSAQVYEKIKAGIISLKYPPGSVLKERELSESLGVSRTPVREAIQRLSQESWLVPGEGKRMQVRP | ≥ 0.43
26 | HMKGVTVDGDNITVDGEKQTLISVNKNLDGDVVSYTYRTADGKLRTSRNVEVAQEINKQQLLKSIDAQ | 0.0219

Row | Sequence | soluble fraction (log2)
27 | HMGQAEEVRYSTFLDEVRNGRIEQVVLQGEHIIGTRKDKTVFSVFNPETDYTALIGTLSKSGVTIEGRP | 0.103
28 | HMIDFDEQGNLWVHEMGPRHGDELNLIEKARNYGYPTVSQGDHYSGVKISNHEDIPIFKSPEKAWVPAISP | -0.373
29 | HMEQTIKKYVNVATLNFRSGPSTSYSIISTLSKGTKVEVISTTNNWSKIIYDGKIGYVSSEYLSKSI | ≥ 0.43
30 | HMDKTTIKNEQKKQILIFAEMNLFFKAKDVAELLGLQASRARYLLQELVKDGKIQGIGNNKGRKYQLI | -0.591
31 | HMEMTSREIIKRLEEDGWYHVKTTGDHYQMKHPTKPGKVTIVHPAKDLSIGTLRSIEKQSGVRL | ≥ 0.43
32 | HMVKNLRKLREELGLTQQRLAELTGISKSRIYSYESLDREPDIAGLITLADFFSVSIDYLVGK | -1.01
33 | HMSSKTKVEDLGLSTRTLNALIGGSIKTAGGLTRKSESDLLSLDGLGEKGITEIKEALENIGLSLK | 0.0218
34 | HMIEINNLEDLKLMKEFILKNGKYGFGVFVGGKYIGLSDIGSVNSFKDTLGLPVVSLGNDDFKRFTEAH | -0.653
35 | HMIADPLVINKLMDSMALAINDYNPDSVEPVLDELRQYFSENQLRELSKAMDDFDFDEALNALTLLRT | -0.619
36 | HMRRSDLVTQGDEILKRLQWNQQQAKDFLNQHLKASSRQQLTDEQLLNFNMLLEEQLVKSME | -0.0311
37 | HMAISEAERARLQTKIKERNKMARWINTNLNPTSKIRNINPAETVRKLMTQDDADSLERSLDAFMEA | 0.0822
38 | HMLMLTPGQVSNSLNVSTATVRRWSARFARHLSPQPPNRKRSYTPDDLATLARVRDLSASGTSLAQIDIAL | -0.29
39 | HMRNSVQREWIYDYIQRQDAHLSADEIYEGLLKEGKNISLATVYRNLSILVDEYKIASVMTDSKKQVYDK | -0.327
40 | HMEQSLNTYSIRTVKESLFLAETKNLNKIEKLVEGIEGRLTLSEALVLFSDKLNAMSVLSHVNANT | -0.273
41 | HMSWNIHEAVEYYKGQDAPQNQFALVELLKEVQEHNGGVLTDIAVEEIAALLNTKVTFLNAVIKRYPSLK | -0.163
42 | HMNTLLGLSNSFQDNKDLENANSISRRFISYRPRSEAELRIRLLKVFSHEIVLESVAQMYREGLLNDQRF | -1.65
43 | HMWDRFGELDSAEEINRIAAAELREGDIDALKVLAEENGLDKDDVEDYIDRLIDELTTPELAAIGKLDV | -0.0336
44 | HMEKINLLVENNDNYRLDKIIALNMEELSRTQIQEMIGQGLVLVNGKVEKASYKTKLNDQIEITIED | -0.409
45 | HMPAAPVFLQKDLLDAGLIGQADSAARREKLGKILGIGYGNGKVMLQRLNSFGIERDAFEQAVQE | -0.195
46 | HMSVDDYLKFSGSGTYWNTQDRGKTYLVNGQQRPLRDKEYLPDVMHRHVIDFITKHRDRPFYIYYSM | -0.0438
47 | HMADLNFHQQIRSLPPEQQEILLLRFGQELTLRQIAQVTGVPLRTVQSRLRAALKKLKSQLEKEE | -0.0215
48 | HMRNNKLRRANKLKTEFENLPHIGKKRAHVLLKAFGSTENLKMTTAQALSEAAKISLKQAEEVLEAVRG | -0.0912
49 | HMQNEQIAFSKFLQEVDSGRVVQVEIQGNNIKGILSDGSKFYTYSPNYPELVGKLSEKGVNIVASPVE | 0.0117
50 | HMSINQTIEGKKQGYWIIYGNMRNLQEYLSNEVIEEGQFKNSRKEGVWRKYFPGGQMKSEITYINGRP | -0.93
51 | HMTVGEAHLEEVYLKVLKQVEEQGTALIRTTDVETGRPAAGIRRRYMRGTLPDEWVAKFEALPGWTWAPG | -0.952
52 | HMKAPLTFVIEGKEYEAFDQYKTGAELKQLAGIPLDTELFLSISKPYQDELIENEKQVNLARPETEYFFVK | -0.494

Row | Sequence | soluble fraction (log2)
53 | HMTVLPTENDAKALVGLNEDEAVKIIEGNGWTYRIGSRDGEQFMLTEDYSTSRLTLGIEKSIVVTATI | -0.56
54 | HMFSDDEINRLKARDSILVNLRDSEKQVWELYTDGKTVQNIANQLNKHKQSISATIINIKNKISRKQNMLK | -0.0225
55 | HMQRRHESTPIPADFDYAAVRGLSAEVQQKLERVRPLSIGQAQRIPGMTPAAISLLLVHLERQRRSRV | 0.00221
56 | HMPSDLQATLRAVQGMLQGVEGVDARLAGQRILLEGDSADARARERAAAIAGIFPGVVIDFVG | 0.062
57 | HMNNIIEQIKADIKKLEEKLDKSSENALNKLEKDYSSLSTESKKKLDDAGYGARIKALRVKFAALSTQ | ≥ 0.43
58 | HMNDVEAIDDALKDLHKVSPDLAALVEMKFFGGMTEPEISEILGVSERTVRREWEKARAALLVLLE | -1.18
59 | HMKAQTVPQFVGMTMTEAEEKASELGITLIEGAVVDSVEPKDTILTQDVDEGTEITGKMEIMVTISS | -0.352
60 | HMATAPQIRAIYALGSKLGINQNSREDNLHQLVYSITGKESIKGLTNYEAARVQSELANMERK | 0.396
61 | HMGIKLSDRQMQIVEIVKSQQPITSEQVAERLNLTRAALRSDLSILTMAGILEARPKVGYSLTGR | 0.14
62 | HMQATETFSLIVPMSSAGNRLDVVLSELLPNFSRKKIQDAIKNGDATLNGKAPKIRDKVYGGENITITLIL | 0.0369
63 | HMYHADLIGLEARSTAGDKLGEVNAVYNFGAGDLIEIKMTDGNLEMLPFTRQYVPTVSIKDGFIIVQM | -1.08
64 | HMTDLQNDIQAFNLKKMSYQHETKKLEEKRNPEKLEKLEQDIQALYLRIMENPNMRAFDSAKQALYLQIM | -1.55
65 | HMVAPPILNITTHIFAEEADLRMVMINGVTRREGDSLGENHRLLEITERGLILIFHNKQYTLDV | -2.1
66 | HMANILKHKNKDGVITSYTIRVYHGYDEAGKRLRPYTMNYKPAPNMTARQIEKELNRQAVQFEEQIKNGYA | -0.182
67 | HMSSVEEILQTLGGRIRTQRLAQGISQQVLADRAGLSLGAVRQLEGSGQSGLDTLVRVLFVLGIVDEL | -1.57
68 | HMQEKIREVANRIRELRESLEVSPEEMADHLKVTIGTYIEYERGEADIPASVLFGIAHRLNVDMAVLL | -1.36
69 | HMSREEFLTELRKALQGRVSQQTVNDNLRYYEEYILTESHKGKTEAEVIAELGNPRLLAKSIIDAENAT | -0.0903
70 | HMAVTEVKTTAVVNMRSSDSEKADKLGKAQIGDTFRVLEQRANGWTKLTDGTQEFFIKSEYLEAIA | 0.0485
71 | HMLDEKFLSELMLALLRNHRRGLRAEVLLHKVRSNMELDGYKSLLVGVGRMEMWELAREIIDFVKAEG | -2.07
72 | HMNPSIALHDWLQSSEFKGSINLFAAALGMNPRTVEAWVYGRSTPSRRFWAKLYQITNLSRFRL | 0.22
73 | HMDEVLDQFVRGQIYGYIRANPGDIYSSIRDNLGLKNGVTTYHLDVLAREEYVYSEIDGTNRRFYPSGWEE | -2.23
74 | HMKQQFTREQIIELMYKAYKKHKKKLNRVEIKKEKALPSYVTIGRYLNETSIKKIWEIVLSEKE | -0.388
75 | HMTKDYVVIYEGLAQTEAVEILGKLQEMGVSAKVDHNDSILVLKDEEDQIRMALATEGYPKS | -0.803
76 | HMSDRFVRIVMNDGTVKLGQMISEDADFIRLKTNNLGELNIPKYLVLDMMDLTRSEYVRLSISNAG | -0.426
